Assay results: paper PMC9674614 (Nature Communications, 2022)

Key:
[1] = target: vaccinia virus protein C4, full length, from baculovirus (vaccinia virus strain Western Reserve (WR)); experiment: SEC
[2] = target: C-terminal domain of vaccinia virus C16 (vaccinia virus strain Western Reserve (WR)) (UniProt P03296); experiment: SEC; C16-C alone
[3] = target: the molecule itself; experiment: mass photometry; purified recombinant C16 alone
[4] = target: the molecule itself; experiment: SEC

**Q.** Which stoichiometry N [1] does the source give for “vaccinia virus protein C4, full length, from baculovirus (natural protein)” here?
**A.** 2

**Q.** How did the stoichiometry N [2] turn out when “C-terminal domain of vaccinia virus C16 (from UniProt P03296) (domain or fragment)” was run?
**A.** 2

B1: vaccinia virus (strain Western Reserve) protein C16, full length, from E. coli (natural protein)
chain: MDIYDDKGLQTIKLFNNEFDCIRNDIRELFKHVTDSDSIQLPMEDNSDIIENIRKILYRRLKNVECVDIDSTITFMKYDPNDDNKRTCSNWVPLTNNYMEYCLVIYLETPICGGKIKLYHPTGNIKSDKDIMFAKTLDFKSKKVLTGRKTIAVLDISVSYNRSMTTIHYNDDVDIDIHTDKNGKELCYCYITIDDHYLVDVETIGVIVNRSGKCLLVNNHLGIGIVKDKRISDSFGDVCMDTIFDFSEARELFSLTNDDNRNIAWDTDKLDDDTDIWTPVTEDDYKFLSRLVLYAKSQSDTVFDYYVLTGDTEPPTVFIFKVTRFYFNMPK
notes: also called VACV-C16; FLC16
**Q.** B1 was tested. Which “stoichiometry N” value [3] did it give?
**A.** 4

**Q.** And the “stoichiometry N” value [4]?
**A.** 2
